{
  "source": "paper PMC3548785",
  "biological_target": "His-ASF/SF2 (UniProt Q07955)",
  "sequence (Q07955 whole entry)": "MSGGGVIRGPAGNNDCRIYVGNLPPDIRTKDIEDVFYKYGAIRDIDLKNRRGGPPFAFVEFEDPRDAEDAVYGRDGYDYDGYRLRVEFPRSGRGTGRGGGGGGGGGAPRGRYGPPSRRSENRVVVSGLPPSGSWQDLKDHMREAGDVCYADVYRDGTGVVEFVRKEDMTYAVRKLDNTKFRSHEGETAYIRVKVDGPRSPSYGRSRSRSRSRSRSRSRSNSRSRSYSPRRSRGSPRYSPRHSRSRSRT",
  "test": "intrinsic tryptophan fluorescence quenching",
  "conditions": "100 mM KCl, 20 mM Tris-HCl pH 7.5, room temperature, 100 nM His-ASF/SF2, excitation 280 nm, emission 340 nm",
  "data": [
    {"substance": "Genomic HDV RNA", "values": [
      {"measurement": "Kd", "result": 40, "unit": "nM"}
    ]}
  ]
}
